Reference: the supplement of paper PMC7877785
± gives the uncertainty stated by the source.

Assay: self-splicing fitness, log relative to wild type (ln ratio); higher = more splicing; Tetrahymena group I intron in knt gene, E. coli kanamycin selection, DiMSum; sequences stand for … in CUCUCU…GGAGGGAAAAGUUAUCAGGCAUGCACCUGGUAGCUAGUCUUUAAACCAAUAGAUUGCAUCGGUUUAAAAGGCAAGACCGUCAAAUUGCGGGAAAGGGGUCAACAGCCGUUCAGUACCAAGUCUCAGGGGAAACUUUGAGAUGGCCUUGCAAAGGGUAUGGUAAUAAGCUGACGGACAUGGUCCUAACCACGCAGCCAAGUCCUAAGUCAACAGAUCUUCUGUUGAUAUGGAUGCAGUUCACAGACUAAAUGUCGGUCGGGGAAGAUGUAUUCUUCUCAUAAGAUAUAGUCGGACCUCUCCUUAAUGGGAGCUAGCGGAUGAAGUGAUGCAACACUGGAGCCGCUGGGAACUAAUUUGUAUGCGAAAGUAUAUUGAUUAGUUUUGGAGUACUCGUGGUCG
Summary of the method: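 The eight P1ex-region nucleotides of an intron in the knt kanamycin-resistance gene on pET-22b(+) were all randomised and the library put into E. coli BL21(DE3). Six replicate transformations were grown overnight at 37°C or 30°C on LB agar with or without 25 μg/mL kanamycin, together with 100 μg/mL carbenicillin, 50 μM IPTG and 0.2% rhamnose. Colonies were pooled and amplicon-sequenced on an Illumina HiSeq 2500. Fitness from DiMSum is the error-weighted combination of wild-type-normalised replicate fold changes, kanamycin over none.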

Sequence | self-splicing fitness (ln) (30 °C) | self-splicing fitness (ln) (37 °C)
GACGAGCAAUAUUACGGUCA | -2.22 ± 0.15 | -0.552 ± 0.15
AGUGAGCAAUAUUACGUGAG | -3.58 ± 0.31 | -0.839 ± 0.19
UAGAAGCAAUAUUACGUAUU | -2.3 ± 0.087 | -2.22 ± 0.12
CCUUAGCAAUAUUACGUCGA | – | -2.67 ± 0.34
AUAGAGCAAUAUUACGCUUC | -2.52 ± 0.24 | -1.47 ± 0.25
GCACAGCAAUAUUACGAUGG | -0.945 ± 0.072 | -1.06 ± 0.081
GACCAGCAAUAUUACGAGCU | -2.91 ± 0.14 | -1.41 ± 0.15
CACAAGCAAUAUUACGUGGG | -3.94 ± 0.16 | -2.42 ± 0.12
CCUUAGCAAUAUUACGCUUG | -3.86 ± 0.3 | -3.5 ± 0.37
AUUCAGCAAUAUUACGAUGU | 0.173 ± 0.082 | 0.209 ± 0.099
AUCGAGCAAUAUUACGAACA | -2.91 ± 0.24 | -1.27 ± 0.2
CUUCAGCAAUAUUACGGUUA | -1.58 ± 0.19 | -1.08 ± 0.2
CGCAAGCAAUAUUACGUGUA | -2.88 ± 0.13 | -0.494 ± 0.1
CACAAGCAAUAUUACGCACU | -2.4 ± 0.13 | -1.33 ± 0.11
ACGUAGCAAUAUUACGCGUC | -1.53 ± 0.22 | -1.97 ± 0.35
UCCUAGCAAUAUUACGGCAG | -3.38 ± 0.24 | -2.81 ± 0.22
GCCAAGCAAUAUUACGUCGG | -2.95 ± 0.18 | -2.28 ± 0.24
AAUUAGCAAUAUUACGGACG | -1.29 ± 0.16 | 0.266 ± 0.12
GUACAGCAAUAUUACGGCCC | -0.268 ± 0.088 | -0.155 ± 0.11
AAUGAGCAAUAUUACGAGUU | -3.21 ± 0.28 | -1.8 ± 0.31
GGCCAGCAAUAUUACGGCUG | -1.41 ± 0.12 | -0.562 ± 0.2
CCUUAGCAAUAUUACGGAGU | -3.24 ± 0.21 | -2.78 ± 0.19
GAAGAGCAAUAUUACGGUGG | -4.19 ± 0.33 | -3.17 ± 0.32
ACAUAGCAAUAUUACGGCUA | -0.773 ± 0.055 | -0.391 ± 0.068
UUCCAGCAAUAUUACGUGUA | -0.989 ± 0.058 | -0.572 ± 0.064
CGGGAGCAAUAUUACGAGUC | – | -1.07 ± 0.26

Sequence | self-splicing fitness (ln) (30 °C) | self-splicing fitness (ln) (37 °C)
CUGCAGCAAUAUUACGGUGU | -4.57 ± 0.36 | -2.37 ± 0.24
CAGAAGCAAUAUUACGUCGG | -1.61 ± 0.14 | -0.979 ± 0.2
UUCGAGCAAUAUUACGCCUA | -1.67 ± 0.11 | -1.39 ± 0.097
ACACAGCAAUAUUACGCUAU | -2.81 ± 0.082 | -1.53 ± 0.079
UGCUAGCAAUAUUACGUGUU | -3.87 ± 0.16 | -2.21 ± 0.12
CUAAAGCAAUAUUACGGGCG | -0.0163 ± 0.069 | -0.208 ± 0.081
GACCAGCAAUAUUACGCAGU | -1.56 ± 0.067 | -0.904 ± 0.09
UUGCAGCAAUAUUACGGAGU | -4.51 ± 0.42 | -2.44 ± 0.2
AAGAAGCAAUAUUACGACUC | 0.456 ± 0.13 | 0.487 ± 0.18
GUAGAGCAAUAUUACGUAAG | -2.29 ± 0.26 | -0.825 ± 0.27
UUUAAGCAAUAUUACGGCAG | -0.39 ± 0.098 | 0.179 ± 0.15
CGCCAGCAAUAUUACGCCGU | -2.59 ± 0.15 | -1.71 ± 0.17
GUAGAGCAAUAUUACGCGUC | -0.836 ± 0.18 | -0.0736 ± 0.22
GUUCAGCAAUAUUACGUGUA | -0.88 ± 0.078 | -0.647 ± 0.071
AAGCAGCAAUAUUACGCGCG | -1.16 ± 0.082 | -0.105 ± 0.1
AAGCAGCAAUAUUACGUUUG | -3.04 ± 0.13 | -1.73 ± 0.14
GUUGAGCAAUAUUACGCUGU | -4.02 ± 0.22 | -2.15 ± 0.19
CGAUAGCAAUAUUACGCCUG | -0.681 ± 0.15 | 0.308 ± 0.11
CGGGAGCAAUAUUACGAGAG | -3.34 ± 0.26 | -3.18 ± 0.32
GUGUAGCAAUAUUACGGUCC | -1.7 ± 0.23 | -0.716 ± 0.25
UCCCAGCAAUAUUACGAUUG | -3.56 ± 0.32 | -3.17 ± 0.4
GUAAAGCAAUAUUACGUAUA | -1.53 ± 0.11 | -0.524 ± 0.14
CUGUAGCAAUAUUACGCUGA | -1.34 ± 0.16 | -3.78 ± 0.29
UUGUAGCAAUAUUACGUGAC | -2.34 ± 0.26 | -1.86 ± 0.33
UUGUAGCAAUAUUACGUGUU | -2.7 ± 0.25 | -2.5 ± 0.24
CGUAAGCAAUAUUACGCCUU | -2.51 ± 0.23 | -2.05 ± 0.31

Sequence | self-splicing fitness (ln) (30 °C) | self-splicing fitness (ln) (37 °C)
CGGCAGCAAUAUUACGAUUC | -2.62 ± 0.17 | -2.3 ± 0.19
GAGAAGCAAUAUUACGAGGC | -3.35 ± 0.21 | -1.78 ± 0.17
CGCCAGCAAUAUUACGAGAU | -3.69 ± 0.18 | -2.04 ± 0.17
GCAAAGCAAUAUUACGAGAA | -3 ± 0.2 | -1.66 ± 0.18
AAGUAGCAAUAUUACGCAGA | -4.11 ± 0.24 | -1.54 ± 0.1
UGAAAGCAAUAUUACGAUUA | -0.302 ± 0.065 | 0.211 ± 0.096
UUACAGCAAUAUUACGUCAU | -3.77 ± 0.2 | -1.18 ± 0.12
AAAGAGCAAUAUUACGGUAU | -3.02 ± 0.17 | -2.28 ± 0.15
UCGGAGCAAUAUUACGAGUC | – | -0.017 ± 0.39
CUAGAGCAAUAUUACGGGUG | 0.162 ± 0.073 | -0.643 ± 0.082
AUUAAGCAAUAUUACGCAAG | -1.32 ± 0.14 | -1.27 ± 0.16
CUCUAGCAAUAUUACGUCGG | -3.22 ± 0.22 | -1.57 ± 0.18
GCACAGCAAUAUUACGGUAG | -3.61 ± 0.15 | -1.98 ± 0.11
AGAGAGCAAUAUUACGUCUG | -4.03 ± 0.33 | -2.38 ± 0.31
CGACAGCAAUAUUACGAUAC | -3.71 ± 0.25 | -2.96 ± 0.27
ACAUAGCAAUAUUACGAGAU | -4.08 ± 0.29 | -2.66 ± 0.26
GAUCAGCAAUAUUACGACGU | 0.142 ± 0.076 | 0.682 ± 0.089
GCGUAGCAAUAUUACGCGAA | – | -1.31 ± 0.39
GACUAGCAAUAUUACGGCCU | -1 ± 0.11 | -0.85 ± 0.16
UCUCAGCAAUAUUACGACGG | -0.806 ± 0.071 | -0.119 ± 0.094
CGGGAGCAAUAUUACGUGCU | -3.7 ± 0.21 | -2.87 ± 0.22
UUGCAGCAAUAUUACGAAGC | -2.28 ± 0.3 | -0.93 ± 0.36
GAAGAGCAAUAUUACGCUAA | – | -2.22 ± 0.3
CGUUAGCAAUAUUACGUUAC | -2.82 ± 0.32 | -2.83 ± 0.43
